Measured values as given in paper PMC12288454, “Functional consequences of genetic variations in DgoR, a GntR/FadR family transcriptional repressor of D-galactonate metabolism in Escherichia coli” (Journal of Bacteriology, 2025).
Numbering of substitutions follows the chain as printed.

Assays:
[1] = biological target: T1, DgoR A152E (Escherichia coli BW, UniProt P31460 1-229, A152E); test: EMSA; no effector; apparent Kd, Hill fit; 10 nM DNA, 50 mM Tris pH 8.5, 10 mM MgCl2, 265 mM NaCl, 1 mM PMSF, 12% glycerol, 2 mM DTT, 1 ug herring sperm DNA per 20 uL, 27 C 30 min; effector pre-incubation 37 C 20 min; 8% native PAGE 0.5x TBE; conditions: protein: recombinant; tags: C-terminal 6xHis; chain copies: 2; label: 5'-Cy5 on strand 1; blunt
T1 sequence: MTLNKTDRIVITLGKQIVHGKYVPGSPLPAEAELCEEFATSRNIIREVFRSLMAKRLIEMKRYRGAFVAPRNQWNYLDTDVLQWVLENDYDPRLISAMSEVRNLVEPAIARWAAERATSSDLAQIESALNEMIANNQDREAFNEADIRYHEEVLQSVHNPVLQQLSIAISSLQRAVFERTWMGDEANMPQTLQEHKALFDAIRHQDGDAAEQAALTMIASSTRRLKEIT

[2] = biological target: T2, DgoR R71C (Escherichia coli BW, UniProt P31460 1-229, R71C); test: as above; conditions: protein: recombinant; tags: C-terminal 6xHis; chain copies: 2; label: 5'-Cy5 on strand 1; blunt
T2 sequence: T1 sequence with R71C, E152A

B1: dgo promoter probe GA149/GA150 (dsDNA)
DNA 1: GTGATCTAAATTGTAGTACAACAATATAAGTTTGTACTACATTACACGCACG
DNA 2: CGTGCGTGTAATGTAGTACAAACTTATATTGTTGTACTACAATTTAGATCAC
**Q.** What does the source list for B1?
**A.** Kd [1]: 1.95 ± 0.09 µM; Kd [2]: 0.57 ± 0.016 µM
